Experimental findings from patent publication US7329737 (DYAX, dated 2008) are described below.

Numbering of substitutions follows the chain as printed.

B1: M0124-C12 (Fab, V domains shown)
VH: EVQLLESGGGLVQPGGSLRLSCAASGFTFSWYTMQWVRQAPGKGLEWVSRIYSSGGGTYYADSVKGRFTISRDNSKNTLYLQMNSLRAEDTAMYYCARVGPWGAFDIWGQGTMVTVSS
VL: DIQMTQSPGTLSLSPGERATLSCRASQSVSSNYLAWYQQKPGKAPKLLIYAASSLQSGVPSRFSGSGSGTDFTLTISSLQPEDFATYYCQQRWTFGQGTKVEIKR
B2: M0108-E10 (Fab, V domains shown)
VH: EVQLLESGGGLVQPGGSLRLSCAASGFTFSRYRMVWVRQAPGKGLEWVSSIYPSGGYTKYADSVKGRFTISRDNSKNTLYLQMNSLRAEDTAVYYCARVITYNNFDSWGQGTLVTVSS
VL: DIQMTQSPGTLSLSPGERATLSCRASQTVSSTYLAWYQQKPGQAPRLLIYGASSRATGIPDRFSGGGSGTDFTLTISRLEPEDFAVYYCQQYGSSPPRYTFGQGTKLEIKR
B3: M0104-D12 (Fab, V domains shown)
VH: EVQLLESGGGLVQPGGSLRLSCAASGFTFSHYAMFWVRQAPGKGLEWVSSIWPSGGKTMYADSVKGRFTISRDNSKNTLYLQMNSLRAEDTATYYCARGGSYLAFDIWGQGTMVTVSS
VL: DIQMTQSPSSLSASVGDRVTITCRASLSVSGYLNWYQHKPGRAPNLLIYATSSLQSGVPSRFSGSGSGTDFTLTVSSLQPEDLATYYCQQSYSSPYTFGQGTKVEIKG
B4: M0112-D04 (Fab, V domains shown)
VH: EVQLLESGGGLVQPGGSLRLSCAASGFTFSHYVMVWVRQAPGKGLEWVSGIRSSGGVTAYADSVKGRFTISRDNSKNTLYLQMNSLRAEDTAMYYCARVGVWYGMDVWGQGTTVTVSS
VL: AQSALTQPLSVSVALGQTARITCGGNNIGSKNVHWYQQKPGQAPVLVIYRDSNRPSGIPERFSGSNSGNTATLTISGAQAGDEADYYCQVWDSSTVFGGGTKLTVLG
B5: M0136-B06 (Fab, V domains shown)
VH: EVQLLESGGGLVQPGGSLRLSCAASGFTFSSYIMIWVRQAPGKGLEWVSYIRPSGGYTKYADSVKGRFTISRDNSKNTLYLQMNSLRAEDTAVYYCARVINAGPGRGYYWRGYSYSDAFDIWGQGTMVTVSS
VL: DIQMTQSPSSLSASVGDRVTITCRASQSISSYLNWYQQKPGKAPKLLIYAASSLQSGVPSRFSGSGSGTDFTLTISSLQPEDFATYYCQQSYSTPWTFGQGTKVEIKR
B6: M0116-E08 (Fab, V domains shown)
VH: EVQLLESGGGLVQPGGSLRLSCAASGFTFSRYPMIWVRQAPGKGLEWVSVIYPSGGMTKYADSVKGRFTISRDNSKNTLYLQMNSLRAEDTAVYYCARVGSYGSLGYWGQGTLVTVSS
VL: DIQMTQSPSSLSASVGDRVTITCLASQSISSYLNWYQQKPGKAPKLLIYDASSLESGVPSRFSGSGSGTDFTLTISSLQPEDFAIYYCQQFNGYPPITFGQGTRLEIKR
B7: M0121-H07 (Fab, V domains shown)
VH: EVQLLESGGGLVQPGGSLRLSCAASGFTFSKYYMVWVRQAPGKGLEWVSVIGPSGGWTTYADSVKGRFTISRDNSKNTLYLQMNSLRAEDTAVYYCARVDYSNYFDYWGQGTLVTVSS
VL: DIQMTQSPSSLSASVGDRVTITCRASQSISRYLNWYQQKPGKAPKLLIYAASNLQSGVPSRFSGSGSGRDYTLTISSLQPEDFVTYYCQQSYSTPWTFGQGTKVEIKR
B8: M0124-A01 (Fab, V domains shown)
VH: EVQLLESGGGLVQPGGSLRLSCAASGFTFSNYPMYWVRQAPGKGLEWVSRIGPSGGHTDYADSVKGRFTISRDNSKNTLYLQMNSLRAEDTAVYYCARAGVWSGLDYWGQGTLVTVSS
VL: B7 VL with S30T, R31G, N53S, R69T, Y71F, T74S, V84A, W96Y, V104L
B9: M0093-E11 (Fab, V domains shown)
VH: EVQLLESGGGLVQPGGSLRLSCAASGFTFSHYEMAWVRQAHGKGLEWVSVIYPSGGATRYADSVKGRFTISRDNSKNTLYLQMNSLRAEDTAVYYCARVAQYYGMDVWGQGTTVTVSS
VL: DIQMTQSPATLSLSPGERATLSCRASQSVSSYLAWYQQKPGQAPRLLIYDASNRATGIPARFSGSGSGTDFTLTISSLEPEDFAVYYCQQRSNWLTFGGGTKVEIKR
B10: M0093-C08 (Fab, V domains shown)
VH: B4 VH with H31R, V33P, V35G, G50S, R52Y, S53P, V57S, A59Y, M93V
VL: DIQMTQSPGTLSLSPGERATLSCRASQSVSSSYLAWYQQKPGQAPRLLIFAASTRATGIPDRFSGSGSATDFTLTISSLEPEDFAVYYCQQRSNWPPELTFSGGTKVEIKR
B11: M0097-F08 (Fab, V domains shown)
VH: B4 VH with H31N, V33P, G50V, R52G, S53P, V57K, A59K, M93V
VL: DIQMTQSPSTLSASVGDRVTISCRASQGIGTHLNWYQQKLGNVPKLLIYAASGLQSGVPPRFSGSGSGTDFTLTISSLHPEDSATYFCQQSYSVPRTFGQGTKVEIKR
B12: M0107-B05 (Fab, V domains shown)
VH: B4 VH with V33L, V35M, G50S, V57I, A59R, M93V, V101Y, W102Y
VL: AQSELTQPASVSGSPGQSITISCTGTSSDVGAYNYVSWYQQHPGKVPKLMIYEVSNRPSGVSNRFSGSKSGNTASLTISGLQAEDEADYYCNSYTTSATLVFGGGTKLTVLS
B13: M0102-C12 (Fab, V domains shown)
VH: EVQLLESGGGLVQPGGSLRLSCAASGFTFSHYLMGWVRQAPGKGLEWVSVIWPSGGITKYADSVKGRFTISRDNSKNTLYLQMNSLRAEDTAVYYCARGNGGFDSWGQGTLVTVSS
VL: DIQMTQSPSSLSASVGDRVTITCRASQGISNYLAWYQQKPGKVPKLLIYAASTLQSGVPSRFSGSGSGTDFTLTISSLQPEDVATYYCQKYNSAPWTFGQGTKVEIKR
B14: M0115-F04 (Fab, V domains shown)
VH: B13 VH with H31N, V50S, W52G, I57Y, N100T, G102T, F103T, D104F, S105F
VL: AQSALTQPPSVSVSPGQTVSITCSGDDLGGRHVSWFQQLSGQSPVLVIYQDDKRPSGIPERFSGSNSGNTATLTISGTQSVDEGDYYCLAWHNYKYVFGSGTTVTVLR
B15: M0102-C02 (Fab, V domains shown)
VH: EVQLLESGGGLVQPGGSLRLSCAASGFTFSHYLMHWVRQAPGKGLEWVSSIYPSGGKTQYADSVKGRFTISRDNSKNTLYLQMNSLRAEDTAVYYCARVFGYYDFWSGYPGAFDYWGQGTLVTVSS
VL: B13 VL with N31S, Y32S, V83F, K90Q, Y91S, N92Y, A94T
B16: M0131-F12 (Fab, V domains shown)
VH: EVQLLESGGGLVQPGGSLRLSCAASGFTFSRYAMGWVRQAPGKGLEWVSYIGPSGGNTTYADSVKGRFTISRDNSKNTLYLQMNSLRAEDTAVYYCARDVGGSGSYYMLSYYYYGMDVWGQGTMVTVSS
VL: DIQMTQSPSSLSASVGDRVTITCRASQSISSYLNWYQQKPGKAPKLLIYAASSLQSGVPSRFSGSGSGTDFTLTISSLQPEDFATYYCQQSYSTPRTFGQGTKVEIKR
B17: M0113-G11 (Fab, V domains shown)
VH: EVQLLESGGGLVQPGGSLRLSCAASGFTFSHYMMQWVRQAPGKGLEWVSGIGPSGGWTKYADSVKGRFTISRDNSKNTLYLQMNSLRAEDTALYYCARLNYGDYVWGQGTLVTVSS
VL: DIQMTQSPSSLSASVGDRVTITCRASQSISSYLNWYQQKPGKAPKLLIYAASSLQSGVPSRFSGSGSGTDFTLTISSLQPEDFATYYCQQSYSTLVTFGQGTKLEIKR
B18: M0115-F08 (Fab, V domains shown)
VH: EVQLLESGGGLVQPGGSLRLSCAASGFTFSHYVMVWVRQAPGKGLEWVSSIYPSGGMTVYADSVKGRFTISRDNSKNTLYLQMNSLRAEDTAVYYCARRGIANSFNIWGQGTMVTVSS
VL: B12 VL with A32G, V46A, N92S, T96S, A98S, L100W, S112G
B19: M0103-E09 (Fab, V domains shown)
VH: B3 VH with A33S, F35L, W52R, K57F, M59K, T93V, G99R, S101V, Y102W, L103D
VL: AQYELTQPASVSGSPGQSITISCTGTNTDVGGYNFVSWYQQYPGKAPKLIIFDVTNRPSGVSNRFSGSKSGNTASLTISGLQAEDEADYYCCSYTNTNTLVFAGGTKVTVLG

The assay deals with T1, hK1 (human tissue kallikrein 1), recombinant (human, UniProt P06870 25-262).
T1 construct: Expressed in P. pastoris from KLK1 cDNA and purified; enzymatically active; also called KLK1; Recombinant (Pichia) Kallikrein
In words: SPR.
A word on the Kd: it is the constant that tells how readily two partners part at equilibrium. A word on the koff: it is a measure of how fast the partners let go of each other. Usually kon stands for the rate constant with which the complex forms. In the case of B1, the Kd stood at 32.5 nM, the koff amounted to 0.126 s⁻¹ and the kon amounted to 3.89e+06 M⁻¹ s⁻¹.
Taken in the same sequence, the figures for B2 were 58.4 nM, 0.0134 s⁻¹ and 230000 M⁻¹ s⁻¹.
As to B3, the Kd stood at 61.3 nM, the dissociation rate constant (koff) worked out at 0.0192 s⁻¹ and the kon was 314000 M⁻¹ s⁻¹.
With B4, the Kd worked out at 54.2 nM, the koff was 0.00956 s⁻¹ and the kon amounted to 176000 M⁻¹ s⁻¹.
For B5 the same measures were 33 nM, 0.00661 s⁻¹ and 200000 M⁻¹ s⁻¹.
Taken in the same sequence, the figures for B6 were 72.7 nM, 0.0164 s⁻¹ and 225000 M⁻¹ s⁻¹.
With B7, the Kd is 32.8 nM, the koff was determined as 0.0055 s⁻¹ and the kon is 168000 M⁻¹ s⁻¹.
For the molecule B8, the Kd is 33.9 nM, the off-rate constant (koff) was found to be 0.0114 s⁻¹ and the kon was 336000 M⁻¹ s⁻¹.
With B9, the Kd was determined as 32.4 nM, the koff worked out at 0.0436 s⁻¹ and the kon stood at 1.34e+06 M⁻¹ s⁻¹.
For B10 the same measures were 40.7 nM, 0.00578 s⁻¹ and 142000 M⁻¹ s⁻¹.
With B11, the dissociation constant (Kd) came out at 33.1 nM, the koff was 0.0117 s⁻¹ and the on-rate constant (kon) stood at 353000 M⁻¹ s⁻¹.
Take B12: the Kd was 33.8 nM, the dissociation rate constant (koff) was 0.0203 s⁻¹ and the kon was 600000 M⁻¹ s⁻¹.
B13: the Kd was 35.4 nM, the koff is 2.62 s⁻¹ and the kon stood at 7.39e+07 M⁻¹ s⁻¹.
On to B14, for which the equilibrium dissociation constant (Kd) is 41.6 nM, the koff came to 0.0131 s⁻¹ and the kon was determined as 314000 M⁻¹ s⁻¹.
For B15 the same measures were 43.5 nM, 0.00628 s⁻¹ and 144000 M⁻¹ s⁻¹.
Take B16: the Kd was found to be 37 nM, the koff stood at 0.00472 s⁻¹ and the kon was determined as 128000 M⁻¹ s⁻¹.
Take B17: the Kd is 42.5 nM, the koff was 0.0121 s⁻¹ and the kon is 286000 M⁻¹ s⁻¹.
Taken in the same sequence, the figures for B18 were 32.6 nM, 0.0158 s⁻¹ and 484000 M⁻¹ s⁻¹.
In the case of B19, the equilibrium dissociation constant (Kd) was determined as 36.4 nM, the koff was 0.00884 s⁻¹ and the kon is 243000 M⁻¹ s⁻¹.
